Experimental data as given in patent US20250092426, “CAS ENDONUCLEASES AND RELATED METHODS” (Flagship Pioneering Innovations VII, LLC, published 2025).

Molecular target: T1, CasEnd-28 (synthetic construct)
T1 chain: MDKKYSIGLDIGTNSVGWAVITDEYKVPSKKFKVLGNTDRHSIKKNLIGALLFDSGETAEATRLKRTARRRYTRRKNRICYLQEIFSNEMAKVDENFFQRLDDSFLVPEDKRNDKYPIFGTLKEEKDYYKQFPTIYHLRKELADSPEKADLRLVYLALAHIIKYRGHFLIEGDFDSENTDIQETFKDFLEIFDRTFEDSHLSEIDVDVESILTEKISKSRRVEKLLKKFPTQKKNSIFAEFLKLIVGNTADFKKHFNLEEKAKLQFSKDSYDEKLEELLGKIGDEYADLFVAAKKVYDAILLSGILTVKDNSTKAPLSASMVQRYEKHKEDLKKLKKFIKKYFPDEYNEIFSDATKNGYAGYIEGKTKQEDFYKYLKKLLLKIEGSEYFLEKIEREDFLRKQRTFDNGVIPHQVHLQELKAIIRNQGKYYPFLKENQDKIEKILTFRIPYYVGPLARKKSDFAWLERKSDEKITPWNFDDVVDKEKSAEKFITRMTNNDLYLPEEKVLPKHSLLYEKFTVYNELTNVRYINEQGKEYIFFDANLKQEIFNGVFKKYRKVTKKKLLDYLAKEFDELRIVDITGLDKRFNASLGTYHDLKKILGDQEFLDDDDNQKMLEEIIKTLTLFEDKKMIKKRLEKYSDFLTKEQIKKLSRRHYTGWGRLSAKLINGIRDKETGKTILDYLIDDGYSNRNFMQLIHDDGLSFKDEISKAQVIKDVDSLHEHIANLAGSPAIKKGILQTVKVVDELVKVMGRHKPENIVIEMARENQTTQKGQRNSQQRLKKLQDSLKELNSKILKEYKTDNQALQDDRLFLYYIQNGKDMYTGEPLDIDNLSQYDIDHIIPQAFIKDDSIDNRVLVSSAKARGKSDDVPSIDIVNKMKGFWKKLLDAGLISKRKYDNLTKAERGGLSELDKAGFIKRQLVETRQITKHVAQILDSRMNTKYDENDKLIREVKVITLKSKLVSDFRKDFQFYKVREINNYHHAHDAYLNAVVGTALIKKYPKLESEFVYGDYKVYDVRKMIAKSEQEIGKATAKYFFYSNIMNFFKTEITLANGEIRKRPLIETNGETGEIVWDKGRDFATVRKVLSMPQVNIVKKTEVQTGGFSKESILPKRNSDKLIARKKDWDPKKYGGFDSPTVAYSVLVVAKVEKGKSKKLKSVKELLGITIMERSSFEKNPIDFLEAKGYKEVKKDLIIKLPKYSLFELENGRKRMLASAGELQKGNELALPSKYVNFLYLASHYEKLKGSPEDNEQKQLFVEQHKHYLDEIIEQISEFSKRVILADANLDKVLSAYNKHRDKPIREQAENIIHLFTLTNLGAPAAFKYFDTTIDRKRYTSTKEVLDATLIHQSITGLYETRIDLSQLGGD
Assay: cell_activity; +++; K562, second nick guide SEQ 380; PAM not stated
In short: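 K562 cells (250,000) nucleofected with plasmids for the reverse transcriptase–Cas endonuclease fusion, template RNA introducing an SNP at endogenous HBB, and second nick guide RNA (250 ng each). Genomic DNA harvested at day 3; percent amplicons with intended edit measured by targeted amplicon sequencing.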

B1: HBB template RNA ; HBB protospacer (ssRNA ; dsDNA)
RNA: CAUGGUGCACCUGACUCCUGGUUUUAGAGCUAGAAAUAGCAAGUUAAAAUAAGGCUAGUCCGUUAUCAACUUGAAAAAGUGGCACCGAGUCGGUGCACGGCAGACUUCUCUGCCGGAGUCAGGUGC
DNA 1: CATGGTGCACCTGACTCCTG
DNA 2: CAGGAGTCAGGTGCACCATG
activity: ≥ 100 % of reference
